± gives the standard error. For part of these data: Variants at the floor of the assay were thinned out.
B1: glmS ribozyme (parent)
chain: AUAAAAGCGCCAGAACUACAGAAAUGUAGUUGACGAGGAGGAGGUUUAUCGAAUUUUCGGCGGAUGCCUCCAAA

Tests used:
Conditions in all cases: with glucosamine-6-phosphate
glucosamine-6-phosphate [1] = variants of: B1; test: kcat; higher = faster cleavage; RNA array
Summary of the method: (§1)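 Glucosamine-6-phosphate in HEPES/KCl/Mg(OAc)2 buffer, at 40 μM to 10 mM, was flowed over barcoded ribozyme variants transcribed in situ by E. coli RNA polymerase on sequenced MiSeq chips. Tracking was through a hybridised Cy3 probe at 37 °C. kobs, kcat and KM came from exponential decay fits and weighted Michaelis–Menten fits of normalised per-tile medians.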

glucosamine-6-phosphate [2] = variants of: B1; test: KM; higher = weaker cofactor use; RNA array
Summary of the method: as §1

glucosamine-6-phosphate [3] = variants of: B1; test: self-cleavage kobs at 40 uM GlcN6P; higher = faster cleavage; RNA array
Summary of the method: as §1

glucosamine-6-phosphate [4] = variants of: B1; test: self-cleavage kobs at 160 uM GlcN6P; higher = faster cleavage; RNA array
Summary of the method: as §1

glucosamine-6-phosphate [5] = variants of: B1; test: self-cleavage kobs at 640 uM GlcN6P; higher = faster cleavage; RNA array
Summary of the method: as §1

glucosamine-6-phosphate [6] = variants of: B1; test: self-cleavage kobs at 2500 uM GlcN6P; higher = faster cleavage; RNA array
Summary of the method: as §1

glucosamine-6-phosphate [7] = variants of: B1; test: self-cleavage kobs at 10000 uM GlcN6P; higher = faster cleavage; RNA array
Summary of the method: as §1

| Variant | kcat (glucosamine-6-phosphate [1]) [s⁻¹] | KM (glucosamine-6-phosphate [2]) [µM] | self-cleavage kobs at 40 uM GlcN6P (glucosamine-6-phosphate [3]) [s⁻¹] | self-cleavage kobs at 160 uM GlcN6P (glucosamine-6-phosphate [4]) [s⁻¹] | self-cleavage kobs at 640 uM GlcN6P (glucosamine-6-phosphate [5]) [s⁻¹] | self-cleavage kobs at 2500 uM GlcN6P (glucosamine-6-phosphate [6]) [s⁻¹] | self-cleavage kobs at 10000 uM GlcN6P (glucosamine-6-phosphate [7]) [s⁻¹] |
| --- | --- | --- | --- | --- | --- | --- | --- |
| U45A U46G | 0.0594 ± 0.012 | 939 ± 230 | 0.00256 ± 0.00026 | 0.00762 ± 0.0012 | 0.0264 ± 0.006 | 0.0366 ± 0.012 | 0.0669 ± 0.021 |
| A42U C70A | 0.00013 ± 6.8e-06 | 813 ± 290 | – | – | – | 9.98e-05 ± 1.2e-05 | 0.00012 ± 9.1e-06 |
| G43U U65G | 4.38e-05 ± 9.2e-07 | 2380 ± 190 | < 1e-05 | – | – | – | 3.53e-05 ± 1.1e-05 |
| A42U C67U | 0.000151 ± 1.3e-05 | 1090 ± 300 | – | – | 5.2e-05 ± 6.3e-06 | 0.000127 ± 1.2e-05 | 0.000131 ± 8.5e-06 |
| G43A U45G C58G | 2.82e-05 ± 8e-07 | 199 ± 61 | – | – | – | – | – |
| G44C U47C | 1.4e-05 ± 4.3e-06 | – | – | – | – | – | – |
| G44C U47A | 8.35e-05 ± 6.6e-06 | 1270 ± 350 | – | – | – | 5.07e-05 ± 1.6e-05 | 7.67e-05 ± 1.8e-05 |
| G43A | 9.3e-05 ± 6.9e-06 | 1560 ± 420 | – | – | 2.21e-05 ± 1.7e-06 | 6.37e-05 ± 1.8e-06 | 7.88e-05 ± 1.4e-06 |
| G43U | 4.89e-05 ± 4.3e-06 | 986 ± 410 | < 1e-05 | – | 1.42e-05 ± 2e-06 | 3.98e-05 ± 1.6e-06 | 4.31e-05 ± 1.2e-06 |
| A42U A52G | 1.76e-05 ± 2.4e-06 | – | – | < 1e-05 | – | – | 1.62e-05 ± 7.9e-06 |
| G43A U56A | 1.8e-05 ± 3.9e-06 | – | – | – | – | – | – |
| G43A U54G | 0.000123 ± 6e-06 | 2490 ± 310 | – | – | – | 6.39e-05 ± 1.5e-05 | 9.76e-05 ± 1.9e-05 |
| U45C C67A | 0.00652 ± 0.00083 | 2490 ± 470 | 0.000122 ± 4.8e-05 | 0.000424 ± 0.00012 | 0.00119 ± 0.00026 | 0.00392 ± 0.0013 | 0.00519 ± 0.001 |
| G44A G66U | 2.15e-05 ± 1.4e-06 | 2150 ± 520 | – | – | – | – | – |
| G43U C68U | 0.00467 ± 0.00089 | 1190 ± 320 | 0.000181 ± 1.5e-05 | 0.000436 ± 4.8e-05 | 0.00188 ± 0.00022 | 0.00344 ± 0.00047 | 0.00404 ± 0.0004 |
| G43U C68G | 0.00617 ± 0.0012 | 527 ± 180 | 0.000533 ± 9.6e-05 | 0.00129 ± 0.00028 | 0.00304 ± 0.00052 | 0.00416 ± 0.0011 | 0.00756 ± 0.0013 |
| A42G U57G | 4.9e-05 ± 1.3e-06 | 514 ± 77 | < 1e-05 | < 1e-05 | – | 4.17e-05 ± 1.4e-05 | 4.59e-05 ± 1.4e-05 |

| Variant | kcat (glucosamine-6-phosphate [1]) [s⁻¹] | KM (glucosamine-6-phosphate [2]) [µM] | self-cleavage kobs at 40 uM GlcN6P (glucosamine-6-phosphate [3]) [s⁻¹] | self-cleavage kobs at 160 uM GlcN6P (glucosamine-6-phosphate [4]) [s⁻¹] | self-cleavage kobs at 640 uM GlcN6P (glucosamine-6-phosphate [5]) [s⁻¹] | self-cleavage kobs at 2500 uM GlcN6P (glucosamine-6-phosphate [6]) [s⁻¹] | self-cleavage kobs at 10000 uM GlcN6P (glucosamine-6-phosphate [7]) [s⁻¹] |
| --- | --- | --- | --- | --- | --- | --- | --- |
| G44U U65G | 0.000347 ± 2.4e-05 | – | – | – | – | 5.71e-05 ± 1.8e-05 | 0.000152 ± 2.6e-05 |
| G43A U55A | 0.00026 ± 7.6e-05 | – | – | – | – | – | 8.23e-05 ± 1.2e-05 |
| G44U U55A | 0.000317 ± 4.2e-05 | 891 ± 390 | – | – | 0.000157 ± 4e-05 | 0.000288 ± 4.6e-05 | 0.000273 ± 3.2e-05 |
| G43A C67U | 0.000171 ± 1.4e-05 | 1110 ± 320 | – | – | 6.14e-05 ± 9.1e-06 | 0.000189 ± 4.2e-05 | 0.000152 ± 9.9e-06 |
| A42U U56A | 0.000109 ± 7.4e-06 | 3230 ± 710 | – | – | – | 4.97e-05 ± 1.4e-05 | 8.21e-05 ± 9.2e-06 |
| G44A A53C | 0.000111 ± 2.5e-05 | – | – | – | 4.9e-05 ± 2.1e-05 | 5.83e-05 ± 1.3e-05 | 0.0001 ± 1.9e-05 |
| G44A A53U | 0.000232 ± 3.9e-05 | 1820 ± 680 | – | – | 5.47e-05 ± 1.1e-05 | 0.000174 ± 2.8e-05 | 0.000182 ± 2.7e-05 |
| U45A U47G | 0.0105 ± 0.0027 | 1910 ± 690 | 0.000279 ± 6e-05 | 0.000689 ± 0.00013 | 0.00261 ± 0.00054 | 0.00915 ± 0.0018 | 0.00802 ± 0.0015 |
| G44U U54A | 0.000233 ± 6.1e-05 | – | – | – | 0.000111 ± 3.6e-05 | 0.000132 ± 4.1e-05 | 0.000252 ± 6.1e-05 |
| G43U U55A | 2.33e-05 ± 3.8e-07 | 1170 ± 67 | – | < 1e-05 | – | – | – |
| A42G U46G | 0.017 ± 0.0083 | – | 0.000254 ± 6.6e-05 | 0.000694 ± 0.00017 | 0.00167 ± 0.00038 | 0.0074 ± 0.0015 | 0.0115 ± 0.0033 |
| A42G U46C | 0.00159 ± 0.00025 | 1020 ± 260 | 5.01e-05 ± 1.5e-05 | 0.000237 ± 4.5e-05 | 0.000597 ± 9.9e-05 | 0.00137 ± 0.00023 | 0.00122 ± 0.00028 |
| U45A G59U | 0.00047 ± 0.00017 | – | < 1e-05 | – | – | 5.25e-05 ± 1.3e-05 | 0.000152 ± 2.4e-05 |
| G43U U54A U55A C67G C68U | 0.000164 ± 6.5e-05 | – | – | – | – | – | 7.92e-05 ± 2.1e-05 |
| G44U U46G | 0.000218 ± 4.7e-05 | 3350 ± 1300 | < 1e-05 | – | 2.83e-05 ± 1e-05 | 0.000102 ± 1.5e-05 | 0.000146 ± 3.9e-05 |
| U45A C67G | 0.000766 ± 0.00012 | 2290 ± 680 | – | – | 0.000163 ± 2.6e-05 | 0.000606 ± 0.00012 | 0.0006 ± 6.8e-05 |
